Measurements reported in the DeepSol protein solubility set.

Assay: soluble on expression in E. coli; label from the status in PepcDB or PDB records

Row | Sequence | soluble on expression in E. coli
1 | MSDEVPEILLAHYLKTLKLPTFQREYQKLARLCATEGVDHVEYLLRLSEREMIERDRRKVERRIKAARFPVVKSLDSFDFAAIPKLNKMQVLELARCEWIERRENVIALGPSGTGKTHVALGLGLAACQKGLSVGFTTAAALVSEMMEARDERRLLRFQKQMAAYQLLIIDELGFVPLSKTGAELLFELISQRYERGATLITSNLPFDEWTETLGSERLTGALLDRITHHVNILEMNGDSYRLAQSRARKAGAAALEHHHHHH | soluble
2 | MRIEKVDTFPLFHKLSSPYGDANGLKSYRTSYLIRITTASGLTGWGECADWLPALDAGFKKRIIPYLIGKEASNRTELITVIKKWHQRAASAVSMALTDITAKKAGLSVCELWGGKLREQIPVYASFQSYSDRPDWSRHSLRLIEKAVRAGFKAVKLKAGGKMFSEDLAHIQAFQEMTGQSTGLILDANQSYDQAAARKWETWFSGWQNVLWFEEPMPFDDLAEYRMLRSALSVPVAGGENVKGAKPFLPIFLENAVDIAQPDVMHCEGTDEFQTVLKLARHFGKRVSPHSYDGGLSRIYAAFGQACLPHWTKMDGEDIEPLEWDAMENPFAQIVPVSIKDGCIQVPDKIEIDTELVEAYVWDGSSYI | soluble
3 | MSLNKKVVIGMSGGVDSSVAAYLLKEQGYDVIGVTMKLTPDDAFYTEQEGGCCSLSAVEDARRVAYRIGIPFYVVNFTDIFKEKVIDYFTEEYLNGKTPNPCIACNKYIKFDALLKKAESLGADYIATGHYCRIVEENGRYVIRKSEDEKKDQTYVMYNMTQDQLKHTLMPCGDYKKDRIREIAREIGLNVFDKKDSEEICFIPDNDHGGFIKRECPKAVKTGNFVDKEGKVLGKHKGIIYYTIGQRKGLGIATGKRVFVTNIDAMKNQVVIGEEEEIFENELISFKNNFIPFDKLTEPMEVDAKIRYNAKASKATIYPVDDENVKVKFEKPQRAITKGQSVVFYDGDLLVGGGIIKEGHHHHHH | not soluble
4 | MGSDKIHHHHHHMPIDTVGEQISLGKTSNEQANHIFLFLEVFKQEGGIQSYVKDIFRAYSGLSQGYQAEVLLLRDSPECSNPFTSNNLKFHYFQNPSPQIGRIKMAGVLLKFLLQRRPQMVFCGHIKLAVLVQTLCQPLGIPYTILTYGKEFWEPLKNQERRALAAAKEIWTISRYSRDRACAVNGIDPHKVKMLPCAIDGNKFTPGAKQPELIDKYGLTDAKVLMTVARLWSGDIYKGVDVTIRALPKIIQSFPEVKYLVIGRGDDQPRLAQLAQDLGVSDRVIFAGFVPTEQLMAHYRLADAYIMPSQEGFGIVYLEAMACGVPVLSGDDDGSADPLQDGKLGWRVPHRNPEAVAAACLEILQGDDQRCDGEWLREQAIALFGMDALQKQLLSLVHTQN | not soluble
5 | GVSKEEYKDVETAKKEKEQLGELMEPALGYVVKVPVSSFENKKVDISDIEVITNGNLDDVPYKANSSKYNYPDIKTKDSSLQYVRSGYVIDGEHSGSNEKGYVYYKGNSPAKELPVNQLLTYTGSWDFTSNANLNNEEGRPNYLNDDYYTKFIGKRVGLVSGDAKPAKHKYTSQFEVDFATKKMTGKLSDKEKTIYTVNADIRGNRFTGAATASDKNKGKGESYNFFSADSQSLEGGFYGPKAEEMAGKFVANDKSLFAVFSAKHNGSNVDTVRIIDASKIDLTNFSISELNNFGDASVLIIDGKKIKLAGSGFTNKHTIEINGKTMVAVACCSNLEYMKFGQLWQQAEGGKPENNSLFLQGERTATDKMPKGGNYKYIGTWDAQVSKENNWVATADDDRKAGYRTEFDVDFGNKNLSGKLFDKNGVNPVFTVDPKIDGNGFTGKAKTSDAGFALDSGSSRYENVKFNDVAVSGGFYGPTAAELGGQFHHKSENGSVGAVFGAKQQVKK | soluble
6 | PFKESQARGLLQDNMANSYNGGDFEDGLLNLSKEVFPTDKYLYQDGQFLDKKTINAYLNPKYTKREIDKMSEKDKKDKKANENLGLNPSHEGETNPEKIAEKSPAYLSNILEQDFYGGGDTKGKNIKGMTIGLAMNSVYYYKKEKDGPTFSKKLDDSEVKKQGKQMASEILSRLRENDDLKDIPIHFAIYKQSSEDSITPGEFITQATAEKSQTKLNEWHNINEKSALLPSSTAADYDENLNNNFKQFNDNLQSYFSNFTQAVGKVKFVDKKPQRLVVDLPIDYYGQAETIGITQYVTEQANKYFDKIDNYEIRIKDGNQPRALISKTKDDKEPQVHIYSN | soluble
